Assay results from the supplement of paper PMC10567573.

B1: KCNA4 (parent)
chain: YQLGEEALLKFREDEGFVREEEDR

Variants of: B1
Assay: protein stability index of a GFP-peptide fusion (GPS, HEK-293T) (PSI 1-6); higher = more stable
Conditions: c terminus: a fixed tail appended
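Note: lentivirally expressed fusions sorted by FACS into six bins by GFP to DsRed ratio, PSI derived from sequencing read proportions per bin multiplied by bin number.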

Protein stability index: each site, then its substitutions
E13: H 3.96; I 3.32; K 4; L 4.45; M 3.84; N 4.5; P 4.22; Q 4.3; R 4.54; S 3.37; T 4.43; V 3.81; W 2.39; Y 4.02
D14: A 3.32; C 4; E 4.18; F 3.78; G 3.45; H 3.64; I 4; K 3.45; L 4.08; M 4.27; N 3.98; P 3.16; Q 3.88; R 3.58; S 3.56; T 3.98; V 3.39; W 2.81; Y 3.59
E15: A 3.83; C 3.86; D 4.15; F 3.83; G 4.42; H 3.87; I 3.83; K 4.16; L 3.88; M 3.96; N 4.42; P 3.99; Q 4.4; R 4.15; S 4.09; T 3.73; V 3.8; W 3.84; Y 4.3
G16: A 4.65; C 4.83; D 5.21; E 4.84; F 4.31; H 4.8; I 4.61; K 3.93; L 4.85; M 4.48; N 4.47; P 4.62; Q 4.73; R 4.08; S 4.75; T 4.58; V 4.5; W 4.12; Y 4.04
F17: A 4.78; C 4.88; D 4.81; E 4.79; G 4.01; H 4.71; I 4.3; K 4.51; L 4.61; M 3.69; N 4.68; P 4.9; Q 4.5; R 4.13; S 4.56; T 4.5; V 4.53; W 4.59; Y 4.86
V18: A 4.16; C 4.53; D 4.83; E 4.67; F 4.36; G 4.43; H 4.36; I 4.5; K 4.13; L 4.44; M 4.58; N 4.82; P 4.63; Q 4.78; R 4.04; S 4.32; T 4.54; W 3.94; Y 4.63
R19: A 4.91; C 4.91; D 4.76; E 4.91; F 4.87; G 4.85; H 4.77; I 4.36; K 4.05; L 4.46; M 4.62; N 4.47; P 4.62; Q 4.42; S 4.22; T 4.65; V 4.59; W 4.4; Y 4.51
E20: A 3.63; C 4.05; D 4.38; F 3.64; G 3.93; H 4.49; I 3.4; K 4.13; L 3.9; M 4.06; N 4.61; P 4.3; Q 4.44; R 4.1; S 4.45; T 4.56; V 4.14; W 3.56; Y 3.71
E21: A 4.45; C 3.71; D 4.4; F 4.06; G 4.43; H 4.18; I 4.07; K 4.08; L 3.07; M 4.21; N 4; P 4.65; Q 4.21; R 3.05; S 4.71; T 4.38; V 4.29; W 3.5; Y 4
E22: A 4.75
